Reference: patent US20250388623A1, “PEPTIDE INHIBITOR AND USE THEREOF” (CHENGDU BRILLIANT INSPIRATION BIOTHERAPEUTICS CO., LTD, priority 2022, published 2025)

Assays:
[1] = molecular target: T1, binding of TSP-1 protein to CD36, a TSP-1 receptor protein (Homo sapiens, UniProt P07996); test: ELISA: blocking of CD36 binding to TSP-1 protein; details: 100 μM polypeptide, 0.25 μg/mL Fc-tagged CD36, blocking of CD36 binding to TSP-1; for inhibition at 100 µM: 3 h, read-out: Blocking rate (Mean, %)
T1 construct: purchased novoprotein (TSP-1); R&D Systems (Fc-tagged CD36) CU45 (TSP-1); 1955-CD-050 (CD36-Fc)
Protocol: ELISA assay was performed to detect the ability of the polypeptides to block the binding of TSP-1 protein to CD36, a TSP-1 receptor protein. TSP-1 protein (novoprotein, Catalog No. CU45) was diluted to 2 μg/mL using 100 mM carbonate buffer and added to sample wells (100 μL/well) of a 96-well ELISA plate (Thermo, Catalog No. 437111), and incubated overnight at 4° C.; after washing the plate twice using 1×PBST wash solution, 200 μL of 1.5% BSA (Sigma, Catalog No. B2064) was added to each well, and incubated at 37° C. for 2 h; after washing the plate 3 times using 1×PBST wash solution, the analytes were added (100 μL/well, 3 replicate wells; for the control group, 0.25 μg/mL of Fc-tagged CD36 protein (R&D Systems, Catalog No. 1955-CD-050); and for the polypeptide-treated groups, a mixture containing Fc-tagged CD36 protein and polypeptide at final concentrations of 0.25 μg/mL and 100 μM, respectively), and incubated at 37° C. for 3 h. After washing the plate 5 times using 1×PBST wash solution, a 1:500 dilution solution of FITC-labeled anti-Fc-tagged antibody (Beyotime, Catalog No. A0556) was added, and incubated for 1 h at 37° C.; after washing the plate 5 times using 1×PBST wash solution, a multifunctional ELISA instrument (TECAN, model: Infinite 200 Pro) was used to detect the intensity of FITC fluorescence signal in each sample well. The ability of the polypeptides to block CD36 binding to TSP-1 protein (Table 2-1) was assessed by calculating the ratio of the fluorescence signal from the polypeptide-treated groups to that of the control group, allowing for the determination of the blocking rate of the polypeptides in inhibiting CD36 binding to TSP-1 protein, i.e., (fluorescence signal of the control group-fluorescence signal of the polypeptide-treated group)/fluorescence signal of the control group×100%. Based on the blocking rate results obtained at the single concentration and on the polypeptide molecule properties, the preferred polypeptide molecules were assayed for concentration dependence (at 0 μM, 0.5 μM, 1 μM, 5 μM, 10 μM, and 100 μM), and IC50 values of the polypeptides for blocking CD36 binding to TSP-1 protein were determined to further assess the abilities of the preferred polypeptide molecules to block the binding of CD36 to TSP-1 (Table 2-2).

P-Smad2/3 = P-Smad2/3 content in lung tissue, BLM mouse fibrosis model; format: in vivo; details: single intratracheal dose 3 mg/kg on Day 7, lung 24 h later; BLM model group = 100.00
From the text: This example aimed to evaluate the inhibitory effect of polypeptides on the TGF-β downstream signaling pathway during fibrosis progression. TGF-β intracellular signaling relies on the phosphorylation events of Smad family proteins. The increase in Smad2/3 phosphorylation levels is an important indicator that signal transduction has occurred in the TGF-β signaling pathway.
In this example, 6- to 8-week-old male C57/6J mice weighing 18-20 g were used as subjects for the study. The experimental animals were randomized into groups, eight animals in each group. In this example, intratracheal administration was performed using an aerosol intratracheal metered dosing applicator during both the modeling and drug delivery processes, as described in Example 4. On the day of modeling (Day 1), the experimental animals were randomly assigned to groups and administered a 0.7 USP/kg dose of bleomycin solution (HanHui Pharmaceutical, Batch No. 20080511) via the tracheal route to induce the model. On Day 7, each peptide-treated group received a single intratracheal dose of peptide drug at a dosage of 3 mg/kg, while the BLM model group was given an equal volume of solvent (saline) as a control. Twenty-four hours after drug administration, the animals were dissected, and the lung tissues were collected and frozen in liquid nitrogen for future use. Total protein from the lung tissue was extracted after grinding the tissue in liquid nitrogen, and the total P-Smad2/3 content in the tissue was measured by using P-Smad2/3 ELISA kit (CST, Catalog No. 12001C). The ratio of the P-Smad2/3 content between the peptide-treated group and the model group was calculated to evaluate the effect of the peptide on TGFβ signaling.

active TGF-β = test: Active TGF-β level in lung tissue, bleomycin (BLM) mouse lung fibrosis model; format: in vivo; details: single intratracheal dose 3 mg/kg on Day 7, lung 24 h later; BLM model group = 100.00
From the text: This Example was to evaluate the inhibitory effect of polypeptides on active TGF-β level during the progression of fibrotic disease. In this Example, a mouse lung fibrosis model induced by bleomycin (BLM) was used. The BLM animal model offers advantages, including a close mimicry of the pathological features of the primary disease, ease of use, and good reproducibility. It is the most representative model for studying the mechanisms of fibrosis and is recommended for evaluating drug efficacy.
In this Example, 6 to 8-week-old male C57/6J mice weighing 18-20 g were used as subjects for the study. The experimental animals were randomized into groups, 8 animals in each group, and the expressions of pro-fibrotic factors were detected at the endpoint of the experiment (Day 8) in this model. In this example, an aerosol intratracheal metered dosing applicator (Yuyan, model YAN30012) was utilized for intratracheal administration during the modeling and drug delivery processes. The dosing was performed as follows (An Official American Thoracic Society Workshop Report: Use of Animal Models for the Preclinical Assessment of Potential Therapies for Pulmonary Fibrosis, Am J Respir Cell Mol Biol Vol 56, Iss 5, pp 667-679, May 2017): The experimental animals were anesthetized with aerosolized isoflurane (RWD, lot no. 22041701) using a small animal anesthesia machine (RWD, model R500IE). Animals in the appropriate anesthetic state were positioned supine with heads facing up and bodies tilted on an operating platform (tilted at approximately) 60°, secured by their incisors. The practitioner gently lifted the tongue with tissue forceps in the right hand, pushing it outward and upward to open the animal's lower jaw. Holding the laryngoscope (Yuyan, model SR310-RW) in the left hand, the practitioner slid its anterior leaf-shaped blade along the midline of the tongue into the oral cavity until reaching the glottis, gently pressing the body and root of the tongue upward. The needle of the drug applicator was then inserted through the mouth into the glottis alongside the laryngoscope, and 50 μL of liquid was quickly injected. On the day of modeling (Day 1), the experimental animals were randomly assigned to groups and administered a 0.7 USP/kg dose of bleomycin solution (HanHui Pharmaceutical, Batch No. 20080511) via the tracheal route to induce the model. On Day 7, each peptide-treated group received a single intratracheal dose of 50 μL peptide drug (at a dosage of 3 mg/kg), while the model group was given an equal volume of solvent (saline, Kelong, Batch No. L221062501) as a control. Twenty-four hours after drug administration, the animals were dissected to collect lung tissue, which was ground in liquid nitrogen to extract total protein from the lung tissue. The active TGF-β content in the lung tissue of mice from each group was measured using the TGF-β ELISA kit (BOSTER, catalog number EK0515). The ratio of active TGF-β content between the peptide-treated group and the model group was calculated to evaluate the effect of the peptide on active TGF-β level.

T1 sequence (P07996 19-1170): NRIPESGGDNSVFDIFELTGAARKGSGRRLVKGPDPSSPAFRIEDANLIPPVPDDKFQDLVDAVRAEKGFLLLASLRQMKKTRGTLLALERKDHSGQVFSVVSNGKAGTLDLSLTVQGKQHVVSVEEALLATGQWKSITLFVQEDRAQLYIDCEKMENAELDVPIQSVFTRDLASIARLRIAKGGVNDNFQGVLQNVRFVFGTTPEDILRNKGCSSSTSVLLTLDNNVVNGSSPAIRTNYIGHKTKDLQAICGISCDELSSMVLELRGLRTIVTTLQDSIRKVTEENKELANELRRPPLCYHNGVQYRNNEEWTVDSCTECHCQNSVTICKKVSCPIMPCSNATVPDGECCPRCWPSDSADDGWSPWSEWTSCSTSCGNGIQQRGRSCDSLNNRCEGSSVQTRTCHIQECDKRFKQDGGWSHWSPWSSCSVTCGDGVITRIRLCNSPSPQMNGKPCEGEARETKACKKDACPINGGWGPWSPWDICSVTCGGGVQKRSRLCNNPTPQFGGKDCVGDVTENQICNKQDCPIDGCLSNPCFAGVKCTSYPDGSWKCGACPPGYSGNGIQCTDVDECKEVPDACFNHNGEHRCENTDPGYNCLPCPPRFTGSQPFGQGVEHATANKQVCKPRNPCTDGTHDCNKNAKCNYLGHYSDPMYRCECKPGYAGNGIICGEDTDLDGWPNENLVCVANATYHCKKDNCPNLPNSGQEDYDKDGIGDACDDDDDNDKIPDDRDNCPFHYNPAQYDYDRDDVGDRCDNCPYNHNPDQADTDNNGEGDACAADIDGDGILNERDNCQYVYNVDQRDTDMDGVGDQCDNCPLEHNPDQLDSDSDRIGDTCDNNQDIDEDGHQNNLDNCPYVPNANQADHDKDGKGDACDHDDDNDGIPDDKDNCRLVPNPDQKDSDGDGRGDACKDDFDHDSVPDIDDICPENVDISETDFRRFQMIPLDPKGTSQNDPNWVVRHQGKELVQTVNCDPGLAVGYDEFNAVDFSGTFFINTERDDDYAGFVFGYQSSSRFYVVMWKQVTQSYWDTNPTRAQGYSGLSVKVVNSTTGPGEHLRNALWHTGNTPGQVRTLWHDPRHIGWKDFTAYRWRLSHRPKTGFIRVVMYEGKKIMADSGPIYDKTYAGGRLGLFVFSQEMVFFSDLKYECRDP

Substance	Blocking rate (Mean, %) [1]	further results
Ac-Thr-Gln-Asp-Ala-Glu-Asp-Asn-Thr-Ala-Ser-Trp-NH2 (Ac-TQDAEDNTASW-NH2) [SEQ ID NO: 34]	20.44%	–
Ac-Ser-Gln-Asp-Ala-Glu-Asp-Asn-Thr-Val-Ser-Phe-Leu-Gln-NH2 (Ac-SQDAEDNTVSFLQ-NH2) [SEQ ID NO: 37]	22.41%	–
Ac-QDAEDNTAS-NH2 [SEQ ID NO: 23, Ac-Gln-Asp-Ala-Glu-Asp-Asn-Thr-Ala-Ser-NH2]	–	inhibition at 100 µM [1]: 22.8%
Ac-Thr-Gln-Asp-Pro-Glu-Asp-Asn-Thr-Val-Ser-Phe-Leu-Gln-NH2 (Ac-TQDPEDNTVSFLQ-NH2) [SEQ ID NO: 39]	22.29%	–
Ac-Thr-Glu-Asp-Ala-Glu-Asp-Asn-NH2 (Ac-TEDAEDN-NH2) [SEQ ID NO: 09]	15.87%	P-Smad2/3 content in lung tissue, ratio to model group, Mean(%) (P-Smad2/3): 89.41%; active TGF-β content in lung tissue, ratio to model group, Mean(%) (active TGF-β): 72.26%
Ac-Thr-Gln-Asp-Pro-Glu-Asp-Asn-Thr-Val-NH2 (Ac-TQDPEDNTV-NH2) [SEQ ID NO: 20]	26.03%	–
Ac-Ser-Gln-Asp-Ala-Glu-Asp-Asn-NH2 (Ac-SQDAEDN-NH2) [SEQ ID NO: 07]	16.42%	P-Smad2/3 content in lung tissue, ratio to model group, Mean(%) (P-Smad2/3): 80.71%; active TGF-β content in lung tissue, ratio to model group, Mean(%) (active TGF-β): 71.66%
Ac-Ser-Gln-Asp-Ala-Glu-Asp-Asn-Thr-Val-Ser-Phe-NH2 (Ac-SQDAEDNTVSF-NH2) [SEQ ID NO: 28]	21.71%	–
Ac-TQDAEDNTQD-NH2 [SEQ ID NO: 49, Ac-Thr-Gln-Asp-Ala-Glu-Asp-Asn-Thr-Gln-Asp-NH2]	–	inhibition at 100 µM [1]: 30.2%; P-Smad2/3 content in lung tissue, ratio to model group, Mean(%) (P-Smad2/3): 91.98%; active TGF-β content in lung tissue, ratio to model group, Mean(%) (active TGF-β): 82.64%
Ac-Thr-Gln-Asp-Ser-Glu-Asp-Asn-NH2 (Ac-TQDSEDN-NH2) [SEQ ID NO: 11]	15.19%	–
Ac-Thr-Gln-Asp-Pro-Ala-Glu-Asp-NH2 (Ac-TQDPAED-NH2) [SEQ ID NO: 47]	19.10%	P-Smad2/3 content in lung tissue, ratio to model group, Mean(%) (P-Smad2/3): 93.25%; active TGF-β content in lung tissue, ratio to model group, Mean(%) (active TGF-β): 83.78%
Ac-Thr-Gln-Asp-Ala-Glu-Asp-Asn-Thr-Ala-Ser-Phe-NH2 (Ac-TQDAEDNTASF-NH2) [SEQ ID NO: 31]	18.44%	P-Smad2/3 content in lung tissue, ratio to model group, Mean(%) (P-Smad2/3): 90.02%; active TGF-β content in lung tissue, ratio to model group, Mean(%) (active TGF-β): 83.22%
Ac-Thr-Gln-Asp-Ala-Glu-Asp-Asn-Thr-Ala-Ser-His-Leu-NH2 (Ac-TQDAEDNTASHL-NH2) [SEQ ID NO: 35]	21.58%	–
Ac-Thr-Glu-Asp-Ala-Glu-Asp-Asn-Thr-Val-Ser-Phe-NH2 (Ac-TEDAEDNTVSF-NH2) [SEQ ID NO: 29]	25.05%	–
Ac-Gln-Asp-Pro-Glu-Asp-NH2 (Ac-QDPED-NH2) [SEQ ID NO: 01]	17.84%	–
Ac-Thr-Gln-Asp-Ala-Glu-Asp-Pro-NH2 (Ac-TQDAEDP-NH2) [SEQ ID NO: 13]	16.56%	–
Ac-Thr-Asn-Asp-Ala-Glu-Asp-Asn-Thr-Val-NH2 (Ac-TNDAEDNTV-NH2) [SEQ ID NO: 19]	16.86%	–
Ac-Thr-Gln-Asp-Ala-Glu-Asp-Asn-Thr-Ala-Ser-Tyr-NH2 (Ac-TQDAEDNTASY-NH2) [SEQ ID NO: 32]	21.45%	–
Ac-Gln-Asp-Ala-Glu-Asp-NH2 (Ac-QDAED-NH2) [SEQ ID NO: 02]	16.39%	–
Ac-Thr-Gln-Asp-Pro-Glu-Asp-Asn-Thr-Val-Ser-Phe-NH2 (Ac-TQDPEDNTVSF-NH2) [SEQ ID NO: 30]	22.45%	–
Ac-Ser-Gln-Asp-Ala-Glu-Asp-Asn-Thr-Val-NH2 (Ac-SQDAEDNTV-NH2) [SEQ ID NO: 18]	18.79%	–
Ac-TQDAEDNT-NH2 [SEQ ID NO: 15, Ac-Thr-Gln-Asp-Ala-Glu-Asp-Asn-Thr-NH2]	–	inhibition at 100 µM [1]: 30.6%
Ac-Thr-Ser-Asp-Ala-Glu-Asp-Asn-NH2 (Ac-TSDAEDN-NH2) [SEQ ID NO: 10]	14.54%	–
Ac-Thr-Gln-Asp-Pro-Glu-Asp-NH2 (Ac-TQDPED-NH2) [SEQ ID NO: 03]	16.02%	–
Ac-Thr-Ser-Asp-Ala-Glu-Asp-Asn-Thr-Val-Ser-Phe-Leu-Gln-NH2 (Ac-TSDAEDNTVSFLQ-NH2) [SEQ ID NO: 38]	20.22%	–
Ac-Thr-Gln-Asp-Ser-Glu-Asp-Asn-Thr-Val-NH2 (Ac-TQDSEDNTV-NH2) [SEQ ID NO: 21]	15.63%	–
Ac-Gln-Asp-Ala-Glu-Asp-Asn-Thr-Ala-NH2 (Ac-QDAEDNTA-NH2) [SEQ ID NO: 16]	24.87%	–
